Results from the nanobody polyreactivity screen of Harvey et al. (2022).

Experiment: yeast display, Sf9 membrane polyspecificity reagent, FACS + sequencing; frameworks hold sequencing errors
Method in brief: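 In a synthetic yeast display library (Saccharomyces cerevisiae BJ5465), nanobody expression was induced with galactose for 36–48 hours. FACS gates were set low and high (top ~1%) using anti-HA fluorescence for expression and streptavidin fluorescence for binding of the Sf9 membrane reagent. Each polyreactivity label is drawn from the gate of origin.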

## QVQLVESGGGLVQAGGSLRLSCAASGIFTYNAMGWYRQAPGKERELVASITRGGSTNYADSVKGRFTISRDNAKNTVYLQMNSLKPEDTAVYYCAARVRVYSGWLYNYWGQGTQVTVSS
  polyreactivity (PSR sort gate): high polyreactivity

## QVQLVESGGGLVQAGGSLRLSCAASGIFVDNAMGWYRQAPGKERELVAAISGSGGSTFYADSVKGRFTISRDNAKNTVYLQLNSLKPEDTAVYYCNADVYPHPAFFVGHDYWGHGTQVTVSS
  polyreactivity (PSR sort gate): low polyreactivity

## QVQLVESGGGLVQAGGSLRLSCAASGIFVGYTMGWYRQAPGKERELVAAIRWTDGSTYYADSVKGRFTISRDNAKNTVYLQMISLKPEDTAVYYCAADSHDPARYYYGDEFEDEYWGQGTQVTVSS
  polyreactivity (PSR sort gate): low polyreactivity

## QVQLVESGGGLVQAGGSLRLSCAASGIFYVYAMGWYRQAPGKERELVAAISSDGSTYYADSVKGRFTISRDNAKNTVYLQMNSLKPEDTAVYYCAAVWYWTQDYDYWGQGTQVTVSS
  polyreactivity (PSR sort gate): low polyreactivity

## QVQLVESGGGLVQAGGSLRLSCAASGIIFAFYAMGWYRQAPGKERELVATISKSGGRTYYADSVKGRFTISRDNAKNTVYLQMNSLKPEDTAVYYCAARIQYAFGADYYWGQGTQVTVSS
  polyreactivity (PSR sort gate): low polyreactivity

## QVQLVESGGGLVQAGGSLRLSCAASGIIFAHNAMGWYRQAPGKERELVAAISKRGGSTYYADSVKGRFTISLDNAKNTVYLQMNSLKPEDTAVYYCAAASFTWVSRGYDYWGQGTQVTVAS
  polyreactivity (PSR sort gate): high polyreactivity

## QVQLVESGGGLVQAGGSLRLSCAASGIIFALYAMGWYRQAPGKERELVATITYSGGSTYYADSVKGRFTISRDNAKNTVYLQMNSLKPEDTAVYYCAADYYILRWRQTNDYWGQGTQVTVSS
  polyreactivity (PSR sort gate): low polyreactivity

## QVQLVESGGGLVQAGGSLRLSCAASGIIFARNGMGWYRPAPGKERELVAAISSGGRKYYADSVKGRFTISRDNAKNTVYLQMNSLKPEDTAVYYCNALGWYLRGDYWGQGTQVTVSS
  polyreactivity (PSR sort gate): high polyreactivity

## QVQLVESGGGLVQAGGSLRLSCAASGIIFARNTMGWYRQAPGKERELVAAISTRGTTSYYADSVKGRFTISRDNAKYTVYLQMNSLKPEDTAVYYCAAVRVHTDRYNYWGQGTQVTVSS
  polyreactivity (PSR sort gate): high polyreactivity

## QVQLVESGGGLVQAGGSLRLSCAASGIIFARYAMGWYRQAPGKERELVAAINWSGGDTYYADSVKGRFTISRDNAKNTVYLEMNSLIPEDTAVYYCSKVISYLVVLPRTERYEGDYWGQGTQVSVSS
  polyreactivity (PSR sort gate): low polyreactivity

## QVQLVESGGGLVQAGGSLRLSCAASGIIFASNAMGWYRQTPGKERELVAAISGSGGRTYYADSVKGRFTISRDNAKNTVYLQMNSLKPDDTAVYYGAAARANNYDYWGQGTQVTVSS
  polyreactivity (PSR sort gate): high polyreactivity

## QVQLVESGGGLVQAGGSLRLSCAASGIIFASNARGWYIQAPGKERELVASINRRGSSTYYADSVKGRFTISRDNAKNTVYLQMNSLKPEDTAVYYCAARAFNSGLGYTRYDYWGQGTQVTVSS
  polyreactivity (PSR sort gate): high polyreactivity

## QVQLVESGGGLVQAGGSLRLSCAASGIIFASNGMGWYRQAPGKERELVAAISSGGSTNYADSVKGLFTISRDHAKNTVYLQMNSLKPEDTAVYYCAADRWDRDYDYWGQGTQVTVSS
  polyreactivity (PSR sort gate): low polyreactivity

## QVQLVESGGGLVQAGGSLRLSCAASGIIFASYAMGWYRPAPGKERELVATISRTGGSTRYADSVKGRFTISRDNAKNTVYLQMNSLKPEDTAVYYCAARNPAYDRRYGYWGQGTQVTVSS
  polyreactivity (PSR sort gate): high polyreactivity

## QVQLVESGGGLVQAGGSLRLSCAASGIIFATNSMGWYRQAPGKERELVAAITSDSTNYADSVKGRFTISRDNAKNTVYLQMNSLKAEDTAVYYCAADLITDYEESDYWGQGTQVTVSS
  polyreactivity (PSR sort gate): low polyreactivity

## QVQLVESGGGLVQAGGSLRLSCAASGIIFAWYAMGWYRQAPGKERELVAAISYSGGTTYYADSVKGRFTISRDIAKNTVYLQMNSLKPEDTEVYYCAGRLHLFFSYDYWGQGTLVTVSS
  polyreactivity (PSR sort gate): low polyreactivity

## QVQLVESGGGLVQAGGSLRLSCAASGIIFAWYAMGWYRQAPGKERELVAAITSRGGSRTFYADSVKGRFTISRDNAKNTVYLQMNSLKPEDTAVYYCAVVTRAHPEDYWGQGTQVTVSS
  polyreactivity (PSR sort gate): high polyreactivity

## QVQLVESGGGLVQAGGSLRLSCAASGIIFAYNAMGWYRQAPGKERELVAAISSGGRTNYADSVKGRFTISRDNAKNTVYLQMNSLKPEDTAVYYCAARPRYYWLGLKIYGYDYWGHGTQVTVSS
  polyreactivity (PSR sort gate): high polyreactivity

## QVQLVESGGGLVQAGGSLRLSCAASGIIFAYNAMGWYRQAPVKERELVAAISVIGGTTYYADSVKGRFTISRDNAKITVYLQMNSLKPEDTAVYYCAVDSVQYGGGYERLHDLYYWGQGTQVTVSS
  polyreactivity (PSR sort gate): low polyreactivity

## QVQLVESGGGLVQAGGSLRLSCAASGIIFAYYAMGWYRQAPGKERELVAAIDYSGASTYYADSVKGRFTISRDNAKNTVYLQMNSLKPEDTAVYYCNADDFGYASYEYWGQGTQVTVSS
  polyreactivity (PSR sort gate): low polyreactivity

## QVQLVESGGGLVQAGGSLRLSCAASGIIFAYYAMGWYRQAPGKERELVAAISDNGGRTFYADSVKGRFTISRDNAKNTVYLQMNSLKPEDTAVYYCAAVVYSEYYYWGQGTQVTVSS
  polyreactivity (PSR sort gate): low polyreactivity

## QVQLVESGGGLVQAGGSLRLSCAASGIIFAYYAMGWYRQAPGKERELVGTNYADSVKGRFTISRDNAKNTVFLQMNSLKPEDTAVYYCAVQGYGEYDYWGQGTQVTVSS
  polyreactivity (PSR sort gate): low polyreactivity

## QVQLVESGGGLVQAGGSLRLSCAASGIIFDDNTMGWYRQAPGKERELVAAISSSGGSTYYADSVKGRFTISRDNAKNTVYLQMNSLKPEDTAVYYCAAAVYYTYPYIVYRNYPEFDYWGQGTQVTVSS
  polyreactivity (PSR sort gate): low polyreactivity

## QVQLVESGGGLVQAGGSLRLSCAASGIIFDDYAMGWYRQAPGKERELVAAINSNGGTTYYADSVKGRFTISRDNAKNTVYLHMNSLKPEDTAVYYCAKAYPGTYREYDYWGQGTQVTVSS
  polyreactivity (PSR sort gate): high polyreactivity

## QVQLVESGGGLVQAGGSLRLSCAASGIIFDFYAMGGYRQAPGKEREFVAAINSGSGSTYYADSVKGRFTISRDNAKNTVYLQMNSLKPVDTAVYYCAADGLSATLTWYSYDYWGQGTQVTVSS
  polyreactivity (PSR sort gate): low polyreactivity

## QVQLVESGGGLVQAGGSLRLSCAASGIIFDFYAMGWYRQAPGKERELVAAINSGSGSTYYADSVKGRFTISRDNAKNTVYLQMNSLKPEDTAVYYCAADGLSATLTWYSYDYWGQGTQVTVSS
  polyreactivity (PSR sort gate): low polyreactivity

## QVQLVESGGGLVQAGGSLRLSCAASGIIFDGNSMGWYRQAPGKEREFVAANSRNGGSTSYADSVKGRFTISRHNAKNTVYLQMHSLKPEDTAVYYCAADVETFWGCRYEYWGQGTQVTVSS
  polyreactivity (PSR sort gate): low polyreactivity

## QVQLVESGGGLVQAGGSLRLSCAASGIIFDGYAMGWYRQAPGKEREFVAAITSGGGSTSYADSVKGRFTISRDNAKNTVYLQMNSLKPEDTAVYYCAARSNRFYVRQRYAYWGQGTQLTVSS
  polyreactivity (PSR sort gate): high polyreactivity

## QVQLVESGGGLVQAGGSLRLSCAASGIIFDINAMGWYRQAPGKERELVAAITTSVDSTYYADSVKGRFTISRDNAKNTVYLQMNSLKPEDTAVYYCAVAFVQFTQYYYWGQGSQVTVSS
  polyreactivity (PSR sort gate): low polyreactivity

## QVQLVESGGGLVQAGGSLRLSCAASGIIFDRNTMGWYRQAPGKEREYVAAISRNGGSTSYADSVKGRFTISRDNAKNTVYLQMNSLKPEDTAVYDCAADVETFWGWRYEYWGQGTQVTVSS
  polyreactivity (PSR sort gate): low polyreactivity

## QVQLVESGGGLVQAGGSLRLSCAASGIIFDRYAMGWYRQAPGKERELVAAISWSGGRTYYADSVKGRFTISRDNAKNTVYLQMNSLKPEDTAVYYCAAKPSVDLDYWGQGTQVTVSS
  polyreactivity (PSR sort gate): high polyreactivity

## QVQLVESGGGLVQAGGSLRLSCAASGIIFDRYAMGWYRQAPGKERELVAAITRSGGRTYYADSVKGRFTISRDNAKNTVYLQMNSLKPEDTAVYYCNAYRSALYPPEYDYWGQGTQVTVSS
  polyreactivity (PSR sort gate): high polyreactivity
